According to US20250057881A1 (ROSWELL PARK CANCER INSTITUTE, published 2025):

Biological target: T1, HLA-A*02:01 (human)
T1 construct: also called HLA-A2; A2
Test: peptide loaded on Flex-T HLA-A*02:01 monomer by UV exchange; the resulting tetramer stained TCR-transduced T cells
Description: HLA-A2-binding epitope of CLDN6 between CLDN6₁₃₁₋₁₄₀ was predicted using […] database. […] (CLDN6₁₃₂₋₁₄₀) (SEQ ID NO:18) peptide was synthesized by EZBiolab with 82% purity. HLA-A2/peptide monomer was generated with Flex-T HLA-A*02:01 monomer UVX followed by tetramerization using PE-streptavidin according to the manufacturer's instruction (BioLegend). CD8-TCR-or mock-transduced cells were stained with the tetramer followed by anti-CD8 antibody.

Binder: TLIPVCWTA (Synthetic peptide, 82% purity) [CLDN6132-140 peptide]
- binding result: binds
